Assay: yeast display, Sf9 membrane polyspecificity reagent, FACS + sequencing; frameworks hold sequencing errors
In short: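 After 36–48 hours of galactose induction, yeast (Saccharomyces cerevisiae BJ5465) displaying a synthetic nanobody library were stained at 4 °C for 1 hour with 10% biotinylated, detergent-solubilized Sf9 membrane reagent. Streptavidin microbeads enriched the stained cells before FACS sorting into low and high (top ~1%) gates on anti-HA and streptavidin fluorescence. Each clone's polyreactivity label reflects its gate of origin.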

| Sequence | polyreactivity (PSR sort gate) |
| --- | --- |
| QVQLVESGGGLVQAGGSLRLSCAASGSTFGGNAMGWYRQAPGKEREFVAAISYSGGSTYYADSVKGRFTISRDNAKNTVYLQMNSLKPEDTAVYYCAATGEPPVFRNGYWGQGTQVTVSS | low polyreactivity |
| QVQLVESGGGLVQAGGSLRLSCAASGSTFGGNAMGWYRQAPGKERELVAAISSTGGSTYYADSVKGRFTISRDNAKNTVYLQMNSLKPEDTAVYYCAALYHWTYDYWGQGTQVTVSS | low polyreactivity |
| QVQLVESGGGLVQAGGSLRLSCAASGSTFGGNGMGWYRQAPGKEREFVATITWRSGSTYYADSVKGRFTISRDNAKNSVYLQMNSLKPEDSAVYYCAKYTSSRRNTWYYYWGQGTQVTVSS | high polyreactivity |
| QVQLVESGGGLVQAGGSLRLSCAASGSTFGGYAMGWNRQAPGKEREWVAAISQSGTRTYYADSVKGRFTISRDNAKNTVYLQMNSLKPEDTAVYYCAAVKRFRKYDYWGQGTQVTVSS | high polyreactivity |
| QVQLVESGGGLVQAGGSLRLSCAASGSTFGGYAMGWYRPAPGKERELVAAISGSGVRTYYADSVKGRFTISRDNAKNTVYLQMNSLKPEDTAVYYCAKRVRYPGDRYYYWGQGTQVTVSS | high polyreactivity |
| QVQLVESGGGLVQAGGSLRLSCAASGSTFGGYAMGWYRQAPGKERELVAAISGSGVRTYYADSVKGRFTISRDNAKNTVYLQMNSLKPEDTAVYYCAKRVRYPGDRYYYWGQGTQVTVSS | high polyreactivity |
| QVQLVESGGGLVQAGGSLRLSCAASGSTFGGYAMGWYRQAPGKERELVAAISKSGGSTYYADSVKGRFTISRDNAKNTVYLQMNSLKPEDTAVYYCNAPYKRSPYNYWGQGTQVTVSS | high polyreactivity |
| QVQLVESGGGLVQAGGSLRLSCAASGSTFGGYTMGGYRQAPGKERELVADITSSGSTNYADSLKGRFTISRDNAKNSVYLQMNSLKPEDTAVYYCAVRTYPGRFWYWGVDMVYWGQGTQVTVSS | low polyreactivity |
| QVQLVESGGGLVQAGGSLRLSCAASGSTFGGYTMGWYRQAPGKERELVADITSSGSTNYADSLKGRFTISRDNAKNTVYLQMNSLKPEDTAVYYCAVRTYPGRFWYWGVDMDYWGQGTQVTVSS | low polyreactivity |
| QVQLVESGGGLVQAGGSLRLSCAASGSTFGHNAMGWYRQAPGKERELVAAIDSGDGTTYADSVKGRFTISRDNAKNTVYLQMNSLKPEDSAVYYWNVDLTTVGLWYYYRPGYDFWGQGTQVTVSS | low polyreactivity |
| QVQLVESGGGLVQAGGSLRLSCAASGSTFGHYAMGWSRQAPGKERELVARITSDDSTSYADSVKGRFTISRDNAKNTVYLQMNSLKPEDTAVDYCAARYYSYSWHPARYQGRYSWGQGTQVTVSS | high polyreactivity |
| QVQLVESGGGLVQAGGSLRLSCAASGSTFGHYAMGWYIQAPGKERELVAGITDTDNHELRRLCEGRFTISRDNAKNTVYLQMNSLKPEDTAVYYCNADDTYYPLCGITGYDYWGQGTQVTVSS | low polyreactivity |
| QVQLVESGGGLVQAGGSLRLSCAASGSTFGHYAMGWYRPAPGKERELVAGITDTDNHELRRLCEGRFTISRDNAKNTVYLQMNSLKPEDTAVYYCIADDTYYPLGGITGYDDWGQGTQVTVSS | low polyreactivity |
| QVQLVESGGGLVQAGGSLRLSCAASGSTFGINAMGWYRQAPGKERELVAAISRRGGSTYYADSVKGRFTISRDNAKNSVYLQMNSLKPEDTAVYYCAARYRNHQYDYWGQGTQVTVSS | high polyreactivity |
| QVQLVESGGGLVQAGGSLRLSCAASGSTFGINAMGWYRQAPGKERELVASITRRGGSTYYADSVKGRFTISRDNAKNTVYLQMNSLKPEDTAVYYCNKTYRYGTPLYDYWGQGTQVTVSS | high polyreactivity |
| QVQLVESGGGLVQAGGSLRLSCAASGSTFGINDMGWSRQAPGKEREFVAAISSTTDSTRYADSVKGRFTISRDNAKNTVYLQMNSLKPEDTAVYYCAAAPQFTFGVGYWGQGTQVTVSS | low polyreactivity |
| QVQLVESGGGLVQAGGSLRLSCAASGSTFGIYAMGWYRQAPGKERELVAAIRKNGGSTYYADSVKGRFTISRDNAKNTVYLQMNSLKPEDTAVYYCNADYWIYPSYDYWGQGTQVTVSS | low polyreactivity |
| QVQLVESGGGLVQAGGSLRLSCAASGSTFGIYAMGWYRQAPGKERELVAAISRSGDSTYYADSVKGRFTISRDNAKNTVYLQMNSLKPEDTAVYYCAADSFRLRYWAVTTHRVQYDYWGQGTQVTVSS | low polyreactivity |
| QVQLVESGGGLVQAGGSLRLSCAASGSTFGKNALGWYRQAPGKERELVAAITRRGGSTNYADSVKGRFTISRDNAKNTVYLQMNSLKPEDTAVYYCNAGYGYGYPKYDYWGQGTQVTVSS | high polyreactivity |
| QVQLVESGGGLVQAGGSLRLSCAASGSTFGKNAMGWYRPAPGKERELVAAITSSGGRTYYADSVKGRFTISRDNAKNTVYLQMNSLKPEDTAVYYCNAVTRRRSLGPWPVEYDYWGQGTQVTVSS | high polyreactivity |
| QVQLVESGGGLVQAGGSLRLSCAASGSTFGKYAMGWYRQAPGKERELVASISRSGASTYYADSVKGRFTISRDNAKNTVYLQMNSLKPEDTAVYYCNKARNPEGYWRYDYWGQGTQVTVSS | high polyreactivity |
| QVQLVESGGGLVQAGGSLRLSCAASGSTFGKYAMGWYRQAPGKERELVATITVSGGNTNYADSVKGRFTISRDNAKNTVYLQMNSLKPEDTAVYYCNAGGRYHAPSGDYWGQGTQVTVSS | low polyreactivity |

| Sequence | polyreactivity (PSR sort gate) |
| --- | --- |
| QVQLVESGGGLVQAGGSLRLSCAASGSTFGLNTMGWYRQAPGKERELVAGITWSGGTTYYADSVKGRFTISRDNAKNTVYLQMNSLKPEDTAVSYCAAAVSDHYWYSRAYYYWGQGTQVTVSS | high polyreactivity |
| QVQLVESGGGLVQAGGSLRLSCAASGSTFGLYVMGWYRQAPGQERELVAAISRRGGSTYYADSVKGRFTSSRDNAKNTVYLQMNSLKPEDTAVYYCNTYYRGGPYDVAYDYWGQGTQVTVSS | high polyreactivity |
| QVQLVESGGGLVQAGGSLRLSCAASGSTFGNNAMGWYRQAPGKERELVATIDDTTVSTNYADSVKGRFTISRDNAKNSVYLQMNSLKPEDTAVYYCAADDVDGSPYDYWGQGTQVTVSS | low polyreactivity |
| QVQLVESGGGLVQAGGSLRLSCAASGSTFGPNAMGWYRQAPGKERELVAAINTRGGSTYYADSVKGRFTISRDNAKNTVYLQMNSLKPEDTAVYYCAAEYVVWYLDRFNYWGQGTQVTVSS | high polyreactivity |
| QVQLVESGGGLVQAGGSLRLSCAASGSTFGPNAMGWYRQAPGNERELVAAITWSGDSTYYADSVKGRFTISRDNAKNTVYLQMNSLKPEDTAVYYCNTDRNVWYAGYDYWGQGTQVSVSS | low polyreactivity |
| QVQLVESGGGLVQAGGSLRLSCAASGSTFGPYAMGWYRPAPGKERELVADITSSDGSTYYADSVKGRFTISRDNAKNSVYFHLNSLKREDTAVYYCNADYRYIWTYWGWTIYDYWGQGTQVTVSS | high polyreactivity |
| QVQLVESGGGLVQAGGSLRLSCAASGSTFGPYAMGWYRQAHGKVRELVAAITESGDSTYYADSVKGRFTISRDNAKNTVYLQMNSLKPEDTAVYYCAAEFYGDKMDYWGQGTQVTVSS | low polyreactivity |
| QVQLVESGGGLVQAGGSLRLSCAASGSTFGPYAMGWYRQAPGKERELVAAITKSGGRTYYADSVKGRFTISRDNAKNTVYLQMNSLKPEDTAVYYCAAYGSVGLEYWGQGTQVTVSS | high polyreactivity |
| QVQLVESGGGLVQAGGSLRLSCAASGSTFGPYAMGWYRQAPGKERELVAAITSSGGTTYYADSVKGRFTISRDNAKNTVYLQMNSLKPEDTAVYYCNTRRHGWKGVAYDYWGQGTQVTVSS | low polyreactivity |
| QVQLVESGGGLVQAGGSLRLSCAASGSTFGPYAMGWYRQAPGKERELVATITRNGGSTYYADSVKGRFTISRDNAKNTVYLQMNILKPEDTAVYYCNAEGRWSSFTQRMDYWGQGTQVTVSS | low polyreactivity |
| QVQLVESGGGLVQAGGSLRLSCAASGSTFGPYTMGWYRQAAGKERELVAAITGGGDSTYYADSVKGRFTISRDNAKNTVYLQMNSLKPEDTAVYYCAAKKPTTRMGYWGQGTQVTVSS | low polyreactivity |
| QVQLVESGGGLVQAGGSLRLSCAASGSTFGQYAMGWYRQAPGKERELVAAISTSGGSTYYADSVKGRFTISRDNAKNTVYLQMNSLKPEDTAVYYCAVDRLPSYPTGFDYWGQGTQVTVSS | high polyreactivity |
| QVQLVESGGGLVQAGGSLRLSCAASGSTFGRKAMAWYRQAPGKEMELVAVISKSGGSTYYADTVKGRFTISRDNAKNTVYLQMNSLKPEDTAVYYCAASLKYRRRMGYWGQGTQVTVSS | high polyreactivity |
| QVQLVESGGGLVQAGGSLRLSCAASGSTFGRNAMGWYRQAPGKERELVAAISKTGGSTYYADSVKGRFTISRDTAKNTVYLQMNSLKPEDTAVYYCAARIRGFRTYYYWGQGTQVTVSS | high polyreactivity |
| QVQLVESGGGLVQAGGSLRLSCAASGSTFGRYAMGWSRQAPGKEWELVAAISGRGGSTYYADSVKGRFTISRDNAKNTVYLQMNSLKPEDTAVYYCAVRYYSARYWYGYDYWGQGTQVTVSS | high polyreactivity |
| QVQLVESGGGLVQAGGSLRLSCAASGSTFGRYAMGWYRQAPGKARELVAAITTSGGRTRYADSVKGRFTISRDNAKNTVYLQMNSLKPEDTAVYYCAASGAQGPDYDYWGQGTQVTVSS | low polyreactivity |
| QVQLVESGGGLVQAGGSLRLSCAASGSTFGRYAMGWYRQAPGKERELVAAISARGGSTYYADSVKGRFTISRDNAKNTVYLQMNSLKPEDTAVYYCNVDYLLHGGRFDYWGQGTQVTVSS | high polyreactivity |
| QVQLVESGGGLVQAGGSLRLSCAASGSTFGRYAMGWYRQAPGKEREMVAAISQRGGSTYYADSVKGRFTISRDYAKNTVYLQMNSLKPEDTAVYYCAAYYTRIRNHYGYWGQGTQVTVSS | high polyreactivity |
| QVQLVESGGGLVQAGGSLRLSCAASGSTFGSNAMGWYRQAPGKERELVAAIRWSGGSTYYADSVKGRFTISRDNAKNTVYLQMNSLKPEDTAVYYCAGSFFQYNRRFNYWVQGTQVTVSS | high polyreactivity |
| QVQLVESGGGLVQAGGSLRLSCAASGSTFGSNAMGWYRQAPGKERELVAAIRWSGGSTYYADSVKGRFTISRDNAKNTVYLQMNSLKPEDTAVYYFAGYYFQYNRRFNYWGQGTQVTVSS | high polyreactivity |
| QVQLVESGGGLVQAGGSLRLSCAASGSTFGSNDMGWYRPAPGKERELVAGITWSGGSTFYADSVKGRFTISRDTAKNTVYLQMNSLKPEDTAVYYCAVSTEVNRYHAKYDYWGQGTQVTVSS | low polyreactivity |

— the nanobody polyreactivity screen of Harvey et al. (2022)
